Ends that are not written are not given here.
T1: biotinylated tau peptide spanning amino acids 199-213 of SEQ ID NO:3 (human, also: biotinylated (position not given here))
T1 peptide: KSKIGSTENLKHQPG


Molecular target: T1, biotinylated tau peptide spanning amino …
Assay: ELISA, biotinylated peptide on streptavidin plate
From the text: Overlapping biotinylated peptides spanning the length of the 4R0N isoform of tau (383 amino acids) were bound to wells of a streptavidin-coated ELISA plate. The plate was washed and blocked, and murine forms of antibodies 5G8, 6A10, 8A4, 7G6 and 3D6 were applied. After washing, a horseradish peroxidase-conjugated anti-mouse antibody was applied to the plate, followed by treatment with OPD (o-phenylenediamine dihydrochloride) to allow color development. The plate was read at 450 nm absorbance, with background from wells omitting primary antibody used as a blank subtraction. […] These peptides correspond to amino acids 257-271 and 315-329 in the full-length 4R2N human tau protein.

| binding result | Binder |
| --- | --- |
| binds | mouse monoclonal antibody 6A10 (antibody, mouse IgG1, V domains shown, Mouse IgG1/kappa; also called m6A10; murine 6A10) VH: EVQLQQSGAELVRSGASVKLSCTASGLNIKDYYIHWVKQRPEQGLEWIGWIDPENDDTEYAPKFQGRATLTTDTSSNTAYLQLSSLTSEDTAVYYCTPLDYWGQGTSVTVSS VL: not shown |
| binds | mouse monoclonal antibody 8A4 (antibody, mouse IgG1, V domains shown, Mouse IgG1/kappa; also called m8A4; murine 8A4) VH: EVQLQQSGAELVRPGALVKLSCKASGFNIKDYYIHWVKQRPEQGLEWIGWIDPENGDTVYDPQFQDKANITADTSSNTAYLQLSSLTSEGTAVYYCSTLDFWGQGTTLTVSS VL: not shown |
| binds | mouse monoclonal antibody 5G8 (antibody, V domains shown, Hybridoma-produced mouse antibody; also called m5G8; murine 5G8) VH: EVQLQQSGAELVRSGASVRLSCTASGFNIKDYYMHWVRQRPEQGLEWIGWIDPENGDTVYAPKFQGKATMTSDTSSNTAYLHLSSLTSEDTAVYYCSPLDFWGQGTTLTVSS VL: not shown |

— patent US20220089702A1 (PROTHENA BIOSCIENCES, published 2022)
